Data taken from patent US20240018251A1 (BIOHENG THERAPEUTICS, published 2024).

B1: chimeric antigen receptor comprising humanized anti-BCMA single domain antibody BH60_V3, on CAR-T cells (other)
chain: EVQLVESGGGLVQPGGSLRLSCVVSGGIFTINDMAWVRQAPGKGLEWVAHISRSGSTYYRDSVKGRFTISRDNAKNSLYLQMNSLRAEDTAVYYCNSIDRPLSYGQGTLVTVSSTTTPAPRPPTPAPTIASQPLSLRPEACRPAAGGAVHTRGLDFACDIYIWAPLAGTCGVLLLSLVITLYCKRGRKKLLYIFKQPFMRPVQTTQEEDGCSCRFPEEEEGGCELRVKFSRSADAPAYQQGQNQLYNELNLGRREEYDVLDKRRGRDPEMGGKPRRKNPQEGLYNELQKDKMAEAYSEIGMKGERRRGKGHDGLYQGLSTATKDTYDALHMQALPPR
B2: chimeric antigen receptor comprising humanized anti-BCMA single domain antibody BH86_V2, on CAR-T cells (other)
chain: EVQLVESGGGLVKPGGSLRLSCAASGRAISSIVMAWVRQAPGKGLEWVASINRWGGTPYYSAPVKGRFTISRDDSKNTLYLQMNSLKTEDTAVYYCAAASTLDSGYDYWGQGTLVTVSSTTTPAPRPPTPAPTIASQPLSLRPEACRPAAGGAVHTRGLDFACDIYIWAPLAGTCGVLLLSLVITLYCKRGRKKLLYIFKQPFMRPVQTTQEEDGCSCRFPEEEEGGCELRVKFSRSADAPAYQQGQNQLYNELNLGRREEYDVLDKRRGRDPEMGGKPRRKNPQEGLYNELQKDKMAEAYSEIGMKGERRRGKGHDGLYQGLSTATKDTYDALHMQALPPR
B3: chimeric antigen receptor comprising humanized anti-BCMA single domain antibody BH60_V1, on CAR-T cells (other)
chain: QVQLVESGGGLVQPGGSLRLSCAVSGGIFTINDMAWFRQAPGKQRELVAHISRSGSTYYRDSVKGRFTISRDNSKNTLYLQMNSLRAEDTATYYCNSIDRPLSYGQGTLVTVSTTTPAPRPPTPAPTIASQPLSLRPEACRPAAGGAVHTRGLDFACDIYIWAPLAGTCGVLLLSLVITLYCKRGRKKLLYIFKQPFMRPVQTTQEEDGCSCRFPEEEEGGCELRVKFSRSADAPAYQQGQNQLYNELNLGRREEYDVLDKRRGRDPEMGGKPRRKNPQEGLYNELQKDKMAEAYSEIGMKGERRRGKGHDGLYQGLSTATKDTYDALHMQALPPR
B4: chimeric antigen receptor comprising humanized anti-BCMA single domain antibody BH60_GKV1, on CAR-T cells (other)
chain: QVQLVESGGGLVQPGGSLRLSCVASGGIFTINDMAWFRQAPGKQRELVAHISRSGSTYYRDSVKGRFTISRDNAKNSLYLQMNSLRAEDTAVYYCNSIDRPLSYGQGTLVTVSTTTPAPRPPTPAPTIASQPLSLRPEACRPAAGGAVHTRGLDFACDIYIWAPLAGTCGVLLLSLVITLYCKRGRKKLLYIFKQPFMRPVQTTQEEDGCSCRFPEEEEGGCELRVKFSRSADAPAYQQGQNQLYNELNLGRREEYDVLDKRRGRDPEMGGKPRRKNPQEGLYNELQKDKMAEAYSEIGMKGERRRGKGHDGLYQGLSTATKDTYDALHMQALPPR
B5: chimeric antigen receptor comprising humanized anti-BCMA single domain antibody BH60_V5, on CAR-T cells (other)
chain: QVQLVESGGGLVQPGGSLRLSCVVSGGIFTINDMAWFRQAPGKQRELVAHISRSGSTYYRDFVKGRFTISRDNSKNTLYLQMNSLRAEDTATYYCNSIDRPLSYGQGTLVTVSTTTPAPRPPTPAPTIASQPLSLRPEACRPAAGGAVHTRGLDFACDIYIWAPLAGTCGVLLLSLVITLYCKRGRKKLLYIFKQPFMRPVQTTQEEDGCSCRFPEEEEGGCELRVKFSRSADAPAYQQGQNQLYNELNLGRREEYDVLDKRRGRDPEMGGKPRRKNPQEGLYNELQKDKMAEAYSEIGMKGERRRGKGHDGLYQGLSTATKDTYDALHMQALPPR
B6: chimeric antigen receptor comprising humanized anti-BCMA single domain antibody BH60_GKV2, on CAR-T cells (other)
chain: QVQLVESGGGLVQPGGSLRLSCAASGGIFTINDMAWFRQAPGKQRELVAHISRSGSTYYRDSVKGRFTISRDNAKNSLYLQMNSLRAEDTAVYYCNSIDRPLSYGQGTQVTVSTTTPAPRPPTPAPTIASQPLSLRPEACRPAAGGAVHTRGLDFACDIYIWAPLAGTCGVLLLSLVITLYCKRGRKKLLYIFKQPFMRPVQTTQEEDGCSCRFPEEEEGGCELRVKFSRSADAPAYQQGQNQLYNELNLGRREEYDVLDKRRGRDPEMGGKPRRKNPQEGLYNELQKDKMAEAYSEIGMKGERRRGKGHDGLYQGLSTATKDTYDALHMQALPPR
B7: chimeric antigen receptor comprising humanized anti-BCMA single domain antibody BH60_V6, on CAR-T cells (other)
chain: QVQLVESGGGLVQPGGSLRLSCVVSGGIFTINDMAWFRQAPGKQRELVAHISRSGSTYYRDFVKGRFTISRDNSKNTSYLQMNNLRAEDTATYYCNSIDRPLSYGQGTLVTVSTTTPAPRPPTPAPTIASQPLSLRPEACRPAAGGAVHTRGLDFACDIYIWAPLAGTCGVLLLSLVITLYCKRGRKKLLYIFKQPFMRPVQTTQEEDGCSCRFPEEEEGGCELRVKFSRSADAPAYQQGQNQLYNELNLGRREEYDVLDKRRGRDPEMGGKPRRKNPQEGLYNELQKDKMAEAYSEIGMKGERRRGKGHDGLYQGLSTATKDTYDALHMQALPPR
B8: chimeric antigen receptor comprising humanized anti-BCMA single domain antibody BH86_V1, on CAR-T cells (other)
chain: QVQLVESGGGLVQAGESLRLSCAASGRAISSIVMAWWRQTPGAEREFVASINRWGGTPYYSDSVKGRFTISRDNSKNTLYLQMNSLRAEDTAVYYCAAASTLDSGYDYWGQGTLVTVSTTTPAPRPPTPAPTIASQPLSLRPEACRPAAGGAVHTRGLDFACDIYIWAPLAGTCGVLLLSLVITLYCKRGRKKLLYIFKQPFMRPVQTTQEEDGCSCRFPEEEEGGCELRVKFSRSADAPAYQQGQNQLYNELNLGRREEYDVLDKRRGRDPEMGGKPRRKNPQEGLYNELQKDKMAEAYSEIGMKGERRRGKGHDGLYQGLSTATKDTYDALHMQALPPR
B9: chimeric antigen receptor comprising humanized anti-BCMA single domain antibody BH86_GKV2, on CAR-T cells (other)
chain: QEVLVESGGGLVQPGGSLRLSCAASGRAISSIVMAWWRQTPGAEREFVASINRWGGTPYYSDSVKGRFTISRDHAKNTLYLQMNSLKSADTAVYYCAAASTLDSGYDYWGPGTQVTVSTTTPAPRPPTPAPTIASQPLSLRPEACRPAAGGAVHTRGLDFACDIYIWAPLAGTCGVLLLSLVITLYCKRGRKKLLYIFKQPFMRPVQTTQEEDGCSCRFPEEEEGGCELRVKFSRSADAPAYQQGQNQLYNELNLGRREEYDVLDKRRGRDPEMGGKPRRKNPQEGLYNELQKDKMAEAYSEIGMKGERRRGKGHDGLYQGLSTATKDTYDALHMQALPPR
B10: chimeric antigen receptor comprising humanized anti-BCMA single domain antibody BH86_V4, on CAR-T cells (other)
chain: QVQLVESGGGLVQAGESLRLSCAASGRAISSIVMAWWRQTPGAEREFVASINRWGGTPYYSDSVKGRFTISRDNSKNTLYLQMNSLRAEDTAVYYCAAASTLDSGYDYWGHGTLVTVSTTTPAPRPPTPAPTIASQPLSLRPEACRPAAGGAVHTRGLDFACDIYIWAPLAGTCGVLLLSLVITLYCKRGRKKLLYIFKQPFMRPVQTTQEEDGCSCRFPEEEEGGCELRVKFSRSADAPAYQQGQNQLYNELNLGRREEYDVLDKRRGRDPEMGGKPRRKNPQEGLYNELQKDKMAEAYSEIGMKGERRRGKGHDGLYQGLSTATKDTYDALHMQALPPR
B11: chimeric antigen receptor comprising humanized anti-BCMA single domain antibody BH86_GKV1, on CAR-T cells (other)
chain: QEVLVESGGGLVQPGGSLRLSCAASGRAISSIVMAWWRQTPGAEREFVASINRWGGTPYYSDSVKGRFTISRDHAKNTLYLQMNSLRAEDTAVYYCAAASTLDSGYDYWGHGTQVTVSTTTPAPRPPTPAPTIASQPLSLRPEACRPAAGGAVHTRGLDFACDIYIWAPLAGTCGVLLLSLVITLYCKRGRKKLLYIFKQPFMRPVQTTQEEDGCSCRFPEEEEGGCELRVKFSRSADAPAYQQGQNQLYNELNLGRREEYDVLDKRRGRDPEMGGKPRRKNPQEGLYNELQKDKMAEAYSEIGMKGERRRGKGHDGLYQGLSTATKDTYDALHMQALPPR
B12: chimeric antigen receptor comprising humanized anti-BCMA single domain antibody BH86_V6, on CAR-T cells (other)
chain: QVQLVESGGGLVQAGESLRLSCAASGRAISSIVMAWWRQTPGAEREFVASINRWGGTPYYSNSVKGRFAISRDNSKNTIHLQMNSLRSEDTAVYYCAAASTLDSGYDYWGHGTLVTVSTTTPAPRPPTPAPTIASQPLSLRPEACRPAAGGAVHTRGLDFACDIYIWAPLAGTCGVLLLSLVITLYCKRGRKKLLYIFKQPFMRPVQTTQEEDGCSCRFPEEEEGGCELRVKFSRSADAPAYQQGQNQLYNELNLGRREEYDVLDKRRGRDPEMGGKPRRKNPQEGLYNELQKDKMAEAYSEIGMKGERRRGKGHDGLYQGLSTATKDTYDALHMQALPPR
B13: chimeric antigen receptor comprising humanized anti-BCMA single domain antibody BH86_GKV3, on CAR-T cells (other)
chain: QEVLVESGGGLVQPGGSLRLSCAASGRAISSIVMAWWRQTPGAEREFVASINRWGGTPYYSDSVKGRFTISRDHAKNTLYLQMNSLKSADTAVYYCAAASTLDSGYDYWGQGTQVTVSTTTPAPRPPTPAPTIASQPLSLRPEACRPAAGGAVHTRGLDFACDIYIWAPLAGTCGVLLLSLVITLYCKRGRKKLLYIFKQPFMRPVQTTQEEDGCSCRFPEEEEGGCELRVKFSRSADAPAYQQGQNQLYNELNLGRREEYDVLDKRRGRDPEMGGKPRRKNPQEGLYNELQKDKMAEAYSEIGMKGERRRGKGHDGLYQGLSTATKDTYDALHMQALPPR

biological target: T1, FITC labeled BCMA (acrobiosystem, Cat. No. BCA-HF254) (UniProt Q02223 1-54, FITC labeled (site not stated)); assay: flow cytometry, CAR-T cells stained with FITC labeled BCMA
T1 construct: Soluble labeled protein used to stain CAR-T cells; also called BCMA antigen protein; BCMA protein
T1 sequence (looked up): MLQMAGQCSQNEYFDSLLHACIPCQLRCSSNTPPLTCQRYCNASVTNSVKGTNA
Protocol: After culturing at 37° C. and 5% CO₂ for 10 days, FITC labeled BCMA (acrobiosystem, Cat. No. BCA-HF254) was used for binding specific staining, and the ability of the corresponding CAR-T cells to specifically bind to the BCMA antigen protein was detected by flow cytometry, which also reflected the expression level of the CAR molecule.

**Q.** Does B1 bind?
**A.** Result: binds

**Q.** Does B2 bind?
**A.** Result: binds

**Q.** Does B3 bind?
**A.** Result: binds

**Q.** Does B4 bind?
**A.** Result: binds

**Q.** Does B5 bind?
**A.** Result: binds

**Q.** Does B6 bind?
**A.** Result: binds

**Q.** Does B7 bind?
**A.** Result: binds

**Q.** Does B8 bind?
**A.** Result: binds

**Q.** Does B9 bind?
**A.** Result: binds

**Q.** Does B10 bind?
**A.** Result: binds

**Q.** Does B11 bind?
**A.** Result: binds

**Q.** Does B12 bind?
**A.** Result: binds

**Q.** Does B13 bind?
**A.** Result: binds
